Results as given in the supplement of paper PMC7877785.
± gives the uncertainty stated by the source.

Assay: self-splicing fitness, log relative to wild type (ln ratio); higher = more splicing; Tetrahymena group I intron in knt gene, E. coli kanamycin selection, DiMSum; sequences stand for … in CUCUCU…GGAGGGAAAAGUUAUCAGGCAUGCACCUGGUAGCUAGUCUUUAAACCAAUAGAUUGCAUCGGUUUAAAAGGCAAGACCGUCAAAUUGCGGGAAAGGGGUCAACAGCCGUUCAGUACCAAGUCUCAGGGGAAACUUUGAGAUGGCCUUGCAAAGGGUAUGGUAAUAAGCUGACGGACAUGGUCCUAACCACGCAGCCAAGUCCUAAGUCAACAGAUCUUCUGUUGAUAUGGAUGCAGUUCACAGACUAAAUGUCGGUCGGGGAAGAUGUAUUCUUCUCAUAAGAUAUAGUCGGACCUCUCCUUAAUGGGAGCUAGCGGAUGAAGUGAUGCAACACUGGAGCCGCUGGGAACUAAUUUGUAUGCGAAAGUAUAUUGAUUAGUUUUGGAGUACUCGUGGUCG
How it was run: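 Six replicate transformations of E. coli BL21(DE3) with a pET-22b(+) library were grown overnight at 37°C or 30°C. The library randomised all eight P1ex-region intron nucleotides, the intron lying in the knt kanamycin-resistance gene, and plates were LB agar with or without 25 μg/mL kanamycin plus 100 μg/mL carbenicillin, 50 μM IPTG and 0.2% rhamnose. Pooled colonies were amplicon-sequenced on an Illumina HiSeq 2500, and fitness is the DiMSum error-weighted combination of wild-type-normalised replicate fold changes, kanamycin versus none.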

Sequence | self-splicing fitness (ln) (30 °C) | self-splicing fitness (ln) (37 °C)
GUAAAGCAAUAUUACGAGCC | -2.51 ± 0.33 | -2.56 ± 0.26
GUAAAGCAAUAUUACGAGGU | -3.07 ± 0.13 | -1.83 ± 0.24
GUAAAGCAAUAUUACGAGUC | -2.56 ± 0.15 | -1.38 ± 0.19
GUAAAGCAAUAUUACGAUGA | -0.0816 ± 0.064 | -0.318 ± 0.068
GUAAAGCAAUAUUACGCAGA | -2.79 ± 0.22 | -0.446 ± 0.17
GUAAAGCAAUAUUACGCGAG | -0.869 ± 0.068 | -0.158 ± 0.091
GUAAAGCAAUAUUACGCGGC | -2.96 ± 0.21 | -0.672 ± 0.18
GUAAAGCAAUAUUACGCUAG | -1.03 ± 0.079 | -0.533 ± 0.1
GUAAAGCAAUAUUACGGAAC | -1.56 ± 0.12 | -1.57 ± 0.21
GUAAAGCAAUAUUACGGAGA | -3.54 ± 0.28 | –
GUAAAGCAAUAUUACGGGAU | -1.62 ± 0.082 | -0.341 ± 0.11
GUAAAGCAAUAUUACGGGUG | -1.6 ± 0.065 | -0.848 ± 0.091
GUAAAGCAAUAUUACGGUCC | -1.23 ± 0.21 | -0.634 ± 0.25
GUAAAGCAAUAUUACGGUGC | -2.22 ± 0.083 | -0.36 ± 0.083
GUAAAGCAAUAUUACGGUUC | -0.687 ± 0.097 | -0.679 ± 0.13
GUAAAGCAAUAUUACGUAAA | -2.08 ± 0.1 | -0.853 ± 0.11
GUAAAGCAAUAUUACGUACC | -3.89 ± 0.2 | -2.55 ± 0.2
GUAAAGCAAUAUUACGUACU | -1.01 ± 0.076 | -0.965 ± 0.13
GUAAAGCAAUAUUACGUCGG | -2.85 ± 0.12 | -1.05 ± 0.13
GUAAAGCAAUAUUACGUGGA | -2.51 ± 0.095 | -1.38 ± 0.073
GUAAAGCAAUAUUACGUUUU | -2.7 ± 0.076 | -1.9 ± 0.1
GUACAGCAAUAUUACGAACC | -1.19 ± 0.14 | -0.582 ± 0.18
GUACAGCAAUAUUACGAAUA | -3.26 ± 0.22 | -1.67 ± 0.13
GUACAGCAAUAUUACGACUU | -0.754 ± 0.059 | -0.179 ± 0.073

Sequence | self-splicing fitness (ln) (30 °C) | self-splicing fitness (ln) (37 °C)
GUACAGCAAUAUUACGAUCC | -0.427 ± 0.14 | 0.81 ± 0.18
GUACAGCAAUAUUACGAUUG | -5.06 ± 0.25 | -2.87 ± 0.17
GUACAGCAAUAUUACGCGCC | -2.15 ± 0.21 | -1.49 ± 0.34
GUACAGCAAUAUUACGCGGA | -2.49 ± 0.21 | -0.988 ± 0.15
GUACAGCAAUAUUACGCGGU | -3.17 ± 0.15 | -2.31 ± 0.15
GUACAGCAAUAUUACGCUGU | -3.5 ± 0.16 | -3 ± 0.21
GUACAGCAAUAUUACGGAGU | -3.06 ± 0.18 | -1.88 ± 0.15
GUACAGCAAUAUUACGGAUA | -2.46 ± 0.12 | -2.36 ± 0.14
GUACAGCAAUAUUACGGAUC | -0.86 ± 0.081 | -0.551 ± 0.11
GUACAGCAAUAUUACGGCGC | -0.365 ± 0.082 | -0.0882 ± 0.095
GUACAGCAAUAUUACGGGAG | -3.04 ± 0.21 | -1.92 ± 0.15
GUACAGCAAUAUUACGGGGC | -3.74 ± 0.35 | -2.77 ± 0.47
GUACAGCAAUAUUACGUCAA | -1.75 ± 0.16 | -2.38 ± 0.21
GUACAGCAAUAUUACGUCCG | -3.2 ± 0.23 | -1.74 ± 0.17
GUACAGCAAUAUUACGUCGU | -1.34 ± 0.11 | 0.338 ± 0.11
GUACAGCAAUAUUACGUGCA | -3.96 ± 0.22 | -2.17 ± 0.16
GUACAGCAAUAUUACGUGCG | -2.57 ± 0.12 | -1.21 ± 0.095
GUACAGCAAUAUUACGUGUU | -2.74 ± 0.075 | -1.54 ± 0.1
GUACAGCAAUAUUACGUUAU | -4.01 ± 0.25 | -1.87 ± 0.14
GUACAGCAAUAUUACGUUCG | -1.45 ± 0.061 | -0.316 ± 0.079
GUACAGCAAUAUUACGUUCU | -1.98 ± 0.1 | -0.102 ± 0.1
GUAGAGCAAUAUUACGACAA | 0.152 ± 0.14 | -0.0812 ± 0.17
GUAGAGCAAUAUUACGAGGC | -3.01 ± 0.19 | -2.63 ± 0.29
GUAGAGCAAUAUUACGAGGU | -1.12 ± 0.16 | -1.33 ± 0.32

Sequence | self-splicing fitness (ln) (30 °C) | self-splicing fitness (ln) (37 °C)
GUAGAGCAAUAUUACGAUCG | -2.6 ± 0.15 | -0.951 ± 0.17
GUAGAGCAAUAUUACGAUGG | -2.34 ± 0.091 | -1.59 ± 0.11
GUAGAGCAAUAUUACGCAAA | -2.21 ± 0.16 | -1.59 ± 0.17
GUAGAGCAAUAUUACGCAAG | -0.744 ± 0.22 | -1.49 ± 0.27
GUAGAGCAAUAUUACGCACU | -1.24 ± 0.25 | 0.332 ± 0.23
GUAGAGCAAUAUUACGCAGA | – | -1.92 ± 0.32
GUAGAGCAAUAUUACGCCUU | -0.0606 ± 0.13 | 0.0599 ± 0.17
GUAGAGCAAUAUUACGCGGG | -2.65 ± 0.15 | -1.43 ± 0.17
GUAGAGCAAUAUUACGCUCG | -1.59 ± 0.13 | -0.12 ± 0.16
GUAGAGCAAUAUUACGGACA | -0.864 ± 0.17 | -1.72 ± 0.27
GUAGAGCAAUAUUACGGACC | -1.22 ± 0.14 | 0.305 ± 0.2
GUAGAGCAAUAUUACGGAGC | -0.91 ± 0.14 | -0.327 ± 0.2
GUAGAGCAAUAUUACGGAUC | -0.404 ± 0.1 | -0.0325 ± 0.14
GUAGAGCAAUAUUACGGCUA | -0.487 ± 0.11 | 0.641 ± 0.16
GUAGAGCAAUAUUACGGUCC | -1.01 ± 0.17 | -0.565 ± 0.28
GUAGAGCAAUAUUACGGUGG | -3.39 ± 0.45 | -0.894 ± 0.23
GUAGAGCAAUAUUACGUCGC | -0.635 ± 0.15 | -0.21 ± 0.18
GUAGAGCAAUAUUACGUGCU | – | -1.29 ± 0.39
GUAGAGCAAUAUUACGUGGC | -1.52 ± 0.17 | -1.29 ± 0.27
GUAUAGCAAUAUUACGAACU | -1.75 ± 0.23 | 0.477 ± 0.24
GUAUAGCAAUAUUACGACCA | -0.996 ± 0.17 | -0.193 ± 0.17
GUAUAGCAAUAUUACGCGCU | -2.22 ± 0.16 | -0.818 ± 0.16
GUAUAGCAAUAUUACGCUGU | -2.81 ± 0.26 | -2.48 ± 0.3
GUAUAGCAAUAUUACGGACC | -1.89 ± 0.5 | -2.56 ± 0.3

Sequence | self-splicing fitness (ln) (30 °C) | self-splicing fitness (ln) (37 °C)
GUAUAGCAAUAUUACGGCCG | -2.76 ± 0.21 | -1.09 ± 0.17
GUAUAGCAAUAUUACGGGAU | -3.5 ± 0.29 | -0.308 ± 0.11
GUAUAGCAAUAUUACGGGUA | -2.56 ± 0.27 | -1.28 ± 0.19
GUAUAGCAAUAUUACGGUAU | -2.73 ± 0.18 | -2.26 ± 0.19
GUAUAGCAAUAUUACGGUUG | -3.77 ± 0.3 | -1.35 ± 0.3
GUAUAGCAAUAUUACGUAGA | – | -2.07 ± 0.32
GUAUAGCAAUAUUACGUUCA | -1.06 ± 0.2 | -0.424 ± 0.23
GUCAAGCAAUAUUACGAACG | -2.06 ± 0.15 | -1.27 ± 0.15
GUCAAGCAAUAUUACGAGGU | -2.65 ± 0.26 | -3.03 ± 0.37
GUCAAGCAAUAUUACGAGUG | -3.56 ± 0.17 | -1.69 ± 0.16
GUCAAGCAAUAUUACGAUCA | -1.76 ± 0.23 | -0.845 ± 0.15
GUCAAGCAAUAUUACGCGAU | -4.38 ± 0.28 | -3.64 ± 0.39
GUCAAGCAAUAUUACGCGUC | -2.99 ± 0.15 | -2.22 ± 0.19
GUCAAGCAAUAUUACGCUCG | -2.95 ± 0.14 | -1.18 ± 0.12
GUCAAGCAAUAUUACGCUGU | -3.26 ± 0.13 | -2.42 ± 0.19
GUCAAGCAAUAUUACGGAUA | -2.47 ± 0.19 | -1.27 ± 0.17
GUCAAGCAAUAUUACGGCCG | -2.31 ± 0.4 | –
GUCAAGCAAUAUUACGGCGG | -4.75 ± 0.32 | -2.83 ± 0.24
GUCAAGCAAUAUUACGGCGU | -1.04 ± 0.083 | -0.0377 ± 0.1
GUCAAGCAAUAUUACGGGCA | -3.61 ± 0.41 | -2.97 ± 0.3
GUCAAGCAAUAUUACGGGCC | -3.75 ± 0.27 | -2.77 ± 0.31
GUCAAGCAAUAUUACGGGGU | -5.42 ± 0.25 | -4.15 ± 0.19
GUCAAGCAAUAUUACGGUAG | -3.35 ± 0.18 | -4.66 ± 0.38
GUCAAGCAAUAUUACGGUUU | -2.48 ± 0.075 | -1.44 ± 0.077
